Holding throughout (experiment): competition; TR-FRET
Common to all, as to settings: tags: glycan-biotinylated for SPR/FRET/AlphaLISA; Acro BioSystems, Biolegend; chain copies: 2 (stated)
In general terms: Time-resolved FRET reads energy transfer from a long-lived donor to a nearby acceptor.

Data set [1] addresses T1, VEGF-A121 (Homo sapiens, UniProt P15692 SEQ:1-121). Here is the method:
(§1) Briefly, for competition TR-FRET, 2-fold dilutions of thermally equilibrated aptamers were made in TR-FRET Buffer (50 mM MOPS, pH 7.4, 125 mM NaCl, 5 mM KCl, 50 μM CHAPS, 0.1 mg/mL BSA, 1 mM CaCl₂, and 1 mM MgCl₂). 5 μL of aptamer or control solution was added to a 15 μL mix of glycan biotinylated […] (5 nM final), ALEXA FLUOR® 647-labeled Aptamer (30 nM final), and Streptavidin-Eu (Perkin Elmer; 2.5 nM final) in a black wall low volume 384 well plate (Greiner). For control, 5 μl of 1000-fold excess of unlabeled parent aptamer or 5 μl TR-FRET buffer alone was added to the mix of ALEXA FLUOR® 647-labeled aptamer, biotin-VEGF-A, and Streptavidin-Eu. The plate was covered with a plate seal and subsequently incubated in the dark for 1 hour at room temperature. The plate was read on a Biotek CYTATION™ 5 plate reader. Samples were excited at 330 nm and fluorescent values were collected at 665 nm. Data analysis was performed by subtracting the background value and plotting as percent inhibition, normalized to baseline in the absence of competitor. The values were fit by [Inhibitor] vs. response-Variable slope (four parameters) using GraphPad Prism Version 7.0 and then normalized to aptamer control to obtain an IC₅₀ relative to parent aptamer. Data is presented as log values of relative IC₅₀.
Activity of each of these variants were tested using a time resolved competition TR-FRET assay, as described in Example 7, in which a labeled parent was competed with increasing concentrations of unlabeled variants for binding to VEGF-A₁₂₁.

Data set [2] addresses T1, VEGF-A121. This is another data set of the same source.
Target sequence in this assay (P15692 other isoform, or with tags, fused parts or gaps): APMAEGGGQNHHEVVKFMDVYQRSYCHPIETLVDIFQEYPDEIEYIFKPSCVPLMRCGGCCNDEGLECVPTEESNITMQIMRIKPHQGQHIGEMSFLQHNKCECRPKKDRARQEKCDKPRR
In data set [3] the target is T1, VEGF-A121. Here is the method:
as §1
The source holds these as a separate data set.

Take AGGCCGCCUCCGCGCGGAGGUCUUUCAUUAGACCGUUUGGCGGCUU (ssRNA, all G 2'-F; A,C,U 2'-OMe; 5' C6NH2; 3' idT) [Aptamer 129]: in the data set with VEGF-A121 [1], the binding signal is > 100 fold worse IC50 vs Aptamer 26.

B1: Aptamer 234 (ssRNA)
RNA: CGACCCGCGCGGAGGGGUUUCAUUAUCCCGUUUGUCG
modifications: G 2'-F except 2'-OMe-G as X in CXAC-Sp3-CCGCGCGGAGGGXUUUCAUUAUCCCGUUUXUCX; A,C,U 2'-OMe; Sp3 joins the two parts; 5' C6NH2; 3' idT
Take B1: the binding result with VEGF-A121 [2] was “binds”.

B2: Aptamer 285 (ssRNA)
RNA: CGACCCGCGCGGAGGGGUUUCAUAAUCCCGUUUGUCG
modifications: G 2'-F except 2'-OMe-G as X in CXAC-Sp3-CCGCGCGGAGGGXUUUCAUAAUCCCGUUUXUCX; A,C,U 2'-OMe; Sp3 joins the two parts; 5' C6NH2; 3' idT
With B2, the binding signal in the data set with VEGF-A121 [3] was ~10 fold better IC50 vs Aptamer 141.

B3: Aptamer 276 (ssRNA)
RNA: ACCCGCGCGGAGGGGUUUCAUUAUCCCGUUUGU
modifications: G 2'-F except 2'-OMe-G as X in AC-Sp3-CCGCGCGGAGGGXUUUCAUUAUCCCGUUUGU; A,C,U 2'-OMe; Sp3 joins the two parts; 5' C6NH2; 3' idT
B3: the binding signal with VEGF-A121 [3] is > 100 fold worse IC50 vs Aptamer 141. Consider AGGCCGAACCGCGCGGAGGGGUUUCAUUAUCCCGUUUUUCGGCUU (ssRNA, all G 2'-F; A,C,U 2'-OMe; Sp3 joins the two parts; 5' C6NH2; 3' idT) [Aptamer 137], for which the binding result with VEGF-A121 [2] is “binds”. Same read-out and setting: as for AGGCCGCUCCGCGCGGAGGGGUUUCAUUAUCCCGUUUAGCGGCUU (ssRNA, all G 2'-F; A,C,U 2'-OMe; Sp3 joins the two parts; 5' C6NH2; 3' idT) [Aptamer 144], the entry is “binds”; as for AGGCCGAUCCGCGCGGAGGGGUUUCAUUAUCCCGUUUAUCGGCUU (ssRNA, all G 2'-F; A,C,U 2'-OMe; Sp3 joins the two parts; 5' C6NH2; 3' idT) [Aptamer 138], “binds”.

Turning to AGGCCGUACCGCGCGGAGGGGUUUCAUUAUCCCGUUUUACGGCUU (ssRNA, all G 2'-F; A,C,U 2'-OMe; Sp3 joins the two parts; 5' C6NH2; 3' idT) [Aptamer 139], the binding result with VEGF-A121 [2] is given as “binds”. Same read-out and setting: the entry for AGGCCGCACCGCGCGGAGGGGUUUCAUUAUCCCGUUUUGCGGCUU (ssRNA, all G 2'-F; A,C,U 2'-OMe; Sp3 joins the two parts; 5' C6NH2; 3' idT) [Aptamer 143] is “binds”. On the same count and under the same terms, as for AGGCCGUCCCGCGCGGAGGGGUUUCAUUAUCCCGUUUGACGGCUU (ssRNA, all G 2'-F; A,C,U 2'-OMe; Sp3 joins the two parts; 5' C6NH2; 3' idT) [Aptamer 142], the entry is “binds”; as for AGGCCGACCCGCGCGGAGGGGUUUCAUUACCCCGUUUGUCGGCUU (ssRNA, all G 2'-F; A,C,U 2'-OMe; Sp3 joins the two parts; 5' C6NH2; 3' idT) [Aptamer 187], “binds”. AGGCCGCAUCCGCGCGGAGGGGUUUCAUUAUCCCGUUUUGCGGCUU (ssRNA, all G 2'-F; A,C,U 2'-OMe; 5' C6NH2; 3' idT) [Aptamer 122]: in the data set with VEGF-A121 [1], the binding result was “binds”.

On to AGGCCGCCUCCACGCGGAGGGGUUUCAUUAUCCCGUUUGGCGGCUU (ssRNA, all G 2'-F; A,C,U 2'-OMe; 5' C6NH2; 3' idT) [Aptamer 149], for which the binding signal with VEGF-A121 [1] is > 100 fold worse IC50 vs Aptamer 26. Regarding AGGCCGCCUCCGCGCGGAGUGGUUUCAUUAUCACGUUUGGCGGCUU (ssRNA, all G 2'-F; A,C,U 2'-OMe; 5' C6NH2; 3' idT) [Aptamer 116], the binding signal with VEGF-A121 [1] was > 100 fold worse IC50 vs Aptamer 26. The same measure, in the same setting: as for AGGCCGCCUCCGCGGGGAGGGGUUUCAUUAUCCCGUUUGGCGGCUU (ssRNA, all G 2'-F; A,C,U 2'-OMe; 5' C6NH2; 3' idT) [Aptamer 159], the figure is > 100 fold worse IC50 vs Aptamer 26. For the molecule AGGCCGACUCCGCGCGGAGGGGUUUCAUUAUCCCGUUUGUCGGCUU (ssRNA, all G 2'-F; A,C,U 2'-OMe; 5' C6NH2; 3' idT) [Aptamer 125], the binding result with VEGF-A121 [1] is on record as “binds”. AGGCCGCCUCCGCGCGGAGCGGUUUCAUUAUCGCGUUUGGCGGCUU (ssRNA, all G 2'-F; A,C,U 2'-OMe; 5' C6NH2; 3' idT) [Aptamer 117]: the binding signal with VEGF-A121 [1] is > 100 fold worse IC50 vs Aptamer 26. Same read-out and setting: the figure for AGGCCGCCUCCGCGCGGAGGGGUUUCAUUAUCCCAUUUGGCGGCUU (ssRNA, all G 2'-F; A,C,U 2'-OMe; 5' C6NH2; 3' idT) [Aptamer 162] is > 100 fold worse IC50 vs Aptamer 26; for AGGCCGCCUCCGCACGGAGGGGUUUCAUUAUCCCGUUUGGCGGCUU (ssRNA, all G 2'-F; A,C,U 2'-OMe; 5' C6NH2; 3' idT) [Aptamer 155] it is > 100 fold worse IC50 vs Aptamer 26; for AGGCCGCCUCCGCUCGGAGGGGUUUCAUUAUCCCGUUUGGCGGCUU (ssRNA, all G 2'-F; A,C,U 2'-OMe; 5' C6NH2; 3' idT) [Aptamer 157] it is > 100 fold worse IC50 vs Aptamer 26. Regarding AGGCCGCUUCCGCGCGGAGGGGUUUCAUUAUCCCGUUUAGCGGCUU (ssRNA, all G 2'-F; A,C,U 2'-OMe; 5' C6NH2; 3' idT) [Aptamer 123], the binding result with VEGF-A121 [1] is listed as “binds”.

The values above are taken from patent publication US20220098591, “STEM-LOOP COMPOSITIONS AND METHODS FOR INHIBITING VASCULAR ENDOTHELIAL GROWTN FACTOR” (DRIVE THERAPEUTICS LLC, published 2022).
